From the supplement of paper PMC10567573

B1: SEC22B (parent)
chain: AKQLFRKLNEQSPTRCTLEAGAMT

Variants of: B1
Experiment: protein stability index of a GFP-peptide fusion (GPS, HEK-293T) (PSI 1-6); higher = more stable
Settings: c terminus: a fixed tail appended
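Further: lentivirally expressed fusions sorted by FACS into six bins by GFP to DsRed ratio, PSI derived from sequencing read proportions per bin multiplied by bin number.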

Variant	protein stability index
AKQLFRKLNEQSPTRHTLEAGAMT	3.47
AKQLFRKLNEQSPTRKTLEAGAMT	2.95
AKQLFRKLNEQSPTRFTLEAGAMT	2.15
AKQLFRKLNEQSPTRITLEAGAMT	3.12
AKQLFRKLNEQSPTRETLEAGAMT	3.85
AKQLFRKLNEQSPTRDTLEAGAMT	3.93
AKQLFRKLNEQSPTRGTLEAGAMT	3.93
AKQLFRKLNEQSPTRATLEAGAMT	3.07
AKQLFRKLDEQSPTRCTLEAGAMT	2.98
AKQLFRKLEEQSPTRCTLEAGAMT	3.56
AKQLFRKLSEQSPTRCTLEAGAMT	1.8
AKQLFRKLMEQSPTRCTLEAGAMT	1.85
AKQLFRKLIEQSPTRCTLEAGAMT	2.13
AKQLFRKLGEQSPTRCTLEAGAMT	2.47
AKQLFRKLHEQSPTRCTLEAGAMT	1.84
AKQLFRKLWEQSPTRCTLEAGAMT	3.44
AKQLFRKLQEQSPTRCTLEAGAMT	2.5
AKQLFRKLREQSPTRCTLEAGAMT	2.88
AKQLFRKLTEQSPTRCTLEAGAMT	1.97
AKQLFRKLFEQSPTRCTLEAGAMT	2.57
AKQLFRKLAEQSPTRCTLEAGAMT	1.95
AKQLFRKLCEQSPTRCTLEAGAMT	1.92
AKQLFRKLKEQSPTRCTLEAGAMT	2.58
AKQLFRKLPEQSPTRCTLEAGAMT	2.59

Variant	protein stability index
AKQLFRKLLEQSPTRCTLEAGAMT	1.35
AKQLFRKLVEQSPTRCTLEAGAMT	1.39
AKQLFRKLYEQSPTRCTLEAGAMT	2.6
AKQLFKKLNEQSPTRCTLEAGAMT	2.07
AKQLFLKLNEQSPTRCTLEAGAMT	2.99
AKQLFWKLNEQSPTRCTLEAGAMT	2.12
AKQLFTKLNEQSPTRCTLEAGAMT	2.27
AKQLFPKLNEQSPTRCTLEAGAMT	2.51
AKQLFYKLNEQSPTRCTLEAGAMT	2.15
AKQLFVKLNEQSPTRCTLEAGAMT	2.31
AKQLFQKLNEQSPTRCTLEAGAMT	2.67
AKQLFMKLNEQSPTRCTLEAGAMT	1.75
AKQLFSKLNEQSPTRCTLEAGAMT	2.53
AKQLFNKLNEQSPTRCTLEAGAMT	2.05
AKQLFRNLNEQSPTRCTLEAGAMT	2.47
AKQLFRSLNEQSPTRCTLEAGAMT	2.31
AKQLFRFLNEQSPTRCTLEAGAMT	1.67
AKQLFRCLNEQSPTRCTLEAGAMT	2.82
AKQLFRELNEQSPTRCTLEAGAMT	2.89
AKQLFRGLNEQSPTRCTLEAGAMT	2.24
AKQLFRQLNEQSPTRCTLEAGAMT	2.25
AKQLFRYLNEQSPTRCTLEAGAMT	1.52
AKQLFRLLNEQSPTRCTLEAGAMT	1.69
AKQLFRILNEQSPTRCTLEAGAMT	1.81

Variant	protein stability index
AKQLFRDLNEQSPTRCTLEAGAMT	2.7
AKQLFRVLNEQSPTRCTLEAGAMT	2.47
AKQLFRALNEQSPTRCTLEAGAMT	1.97
AKQLFRHLNEQSPTRCTLEAGAMT	2.64
AKQLFRRLNEQSPTRCTLEAGAMT	2
AKQLFRMLNEQSPTRCTLEAGAMT	1.83
AKQLFRTLNEQSPTRCTLEAGAMT	2.54
AKQLFRPLNEQSPTRCTLEAGAMT	3.33
AKQLFRKLNESSPTRCTLEAGAMT	2.1
AKQLFRKLNEYSPTRCTLEAGAMT	1.35
AKQLFRKLNEDSPTRCTLEAGAMT	2.44
AKQLFRKLNEWSPTRCTLEAGAMT	1.98
AKQLFRKLNEVSPTRCTLEAGAMT	1.48
AKQLFRKLNEESPTRCTLEAGAMT	2.85
AKQLFRKLNEMSPTRCTLEAGAMT	2.26
AKQLFRKLNEPSPTRCTLEAGAMT	2.09
AKQLFRKLNEASPTRCTLEAGAMT	1.77
AKQLFRKLNEGSPTRCTLEAGAMT	2.14
AKQLFRKLNEFSPTRCTLEAGAMT	1.65
AKQLFRKLNERSPTRCTLEAGAMT	1.41
AKQLFRKLNEKSPTRCTLEAGAMT	1.96
AKQLFRKLNENSPTRCTLEAGAMT	2.22
AKQLFRKLNEHSPTRCTLEAGAMT	1.99
AKQLFRKLNEISPTRCTLEAGAMT	1.71

Variant	protein stability index
AKQLFRKLNECSPTRCTLEAGAMT	2.13
AKQLFRKLNELSPTRCTLEAGAMT	1.38
AKQLFRKLNETSPTRCTLEAGAMT	1.82
AKQLFRKLNEQSPTHCTLEAGAMT	3.44
AKQLFRKLNEQSPTECTLEAGAMT	2.81
AKQLFRKLNEQSPTKCTLEAGAMT	3.2
AKQLFRKLNEQSPTACTLEAGAMT	3.03
AKQLFRKLNEQSPTVCTLEAGAMT	3.01
AKQLFRKLNEQSPTFCTLEAGAMT	2.41
AKQLFRKLNEQSPTWCTLEAGAMT	1.97
AKQLFRKLNEQSPTMCTLEAGAMT	2.71
AKQLFRKLNEQSPTGCTLEAGAMT	3.15
AKQLFRKLNEQSPTYCTLEAGAMT	2.82
AKQLFRKLNEQSPTQCTLEAGAMT	3.55
AKQLFRKLNEQSPTPCTLEAGAMT	3
AKQLFRKLNEQSPTCCTLEAGAMT	2.8
AKQLFRKLNEQSPTSCTLEAGAMT	2.44
AKQLFRKLNEQSPTDCTLEAGAMT	4.3
AKQLFRKLNEQSPTICTLEAGAMT	2.76
AKQLFRKLNEQSPTTCTLEAGAMT	2.67
AKQLFRKLNEQSPTLCTLEAGAMT	3.03
AKQLFRKLNEQSPTNCTLEAGAMT	3.19
AKQLFRKLNEQSTTRCTLEAGAMT	2.14
AKQLFRKLNEQSQTRCTLEAGAMT	1.98

Variant	protein stability index
AKQLFRKLNEQSDTRCTLEAGAMT	3.06
AKQLFRKLNEQSLTRCTLEAGAMT	2.08
AKQLFRKLNEQSATRCTLEAGAMT	2.48
AKQLFRKLNEQSCTRCTLEAGAMT	1.53
AKQLFRKLNEQSHTRCTLEAGAMT	1.7
AKQLFRKLNEQSYTRCTLEAGAMT	1
AKQLFRKLNEQSMTRCTLEAGAMT	1.82
AKQLFRKLNEQSNTRCTLEAGAMT	1.86
AKQLFRKLNEQSSTRCTLEAGAMT	1.58
AKQLFRKLNEQSRTRCTLEAGAMT	2.73
AKQLFRKLNEQSITRCTLEAGAMT	1.61
AKQLFRKLNEQSKTRCTLEAGAMT	1.88
AKQLFRKLNEQSGTRCTLEAGAMT	1.96
AKQLFRKLNEQSETRCTLEAGAMT	2.81
AKQLFRKLNEQSVTRCTLEAGAMT	2.46
AKQLFRKLNEQSFTRCTLEAGAMT	1.77
AKQLFRKLNNQSPTRCTLEAGAMT	1.95
AKQLFRKLNVQSPTRCTLEAGAMT	1.81
AKQLFRKLNWQSPTRCTLEAGAMT	1.56
AKQLFRKLNSQSPTRCTLEAGAMT	2.89
AKQLFRKLNYQSPTRCTLEAGAMT	3.1
AKQLFRKLNPQSPTRCTLEAGAMT	1.34
AKQLFRKLNGQSPTRCTLEAGAMT	2.13
AKQLFRKLNFQSPTRCTLEAGAMT	2.99

Variant	protein stability index
AKQLFRKLNDQSPTRCTLEAGAMT	2.18
AKQLFRKLNAQSPTRCTLEAGAMT	1.88
AKQLFRKLNIQSPTRCTLEAGAMT	2.7
AKQLFRKLNTQSPTRCTLEAGAMT	2.31
AKQLFRKLNRQSPTRCTLEAGAMT	2.22
AKQLFRKLNLQSPTRCTLEAGAMT	1.08
AKQLFRKLNQQSPTRCTLEAGAMT	1.54
AKQLFRKLNHQSPTRCTLEAGAMT	2
AKQLFRKLNMQSPTRCTLEAGAMT	2.72
AKQLFRKLNKQSPTRCTLEAGAMT	1.65
AKQLFRKLNCQSPTRCTLEAGAMT	1.41
AKQLFRKLNEQSPCRCTLEAGAMT	3.02
AKQLFRKLNEQSPERCTLEAGAMT	3.53
AKQLFRKLNEQSPLRCTLEAGAMT	1.94
AKQLFRKLNEQSPQRCTLEAGAMT	1.86
AKQLFRKLNEQSPHRCTLEAGAMT	1.81
AKQLFRKLNEQSPWRCTLEAGAMT	2.01
AKQLFRKLNEQSPMRCTLEAGAMT	1.79
AKQLFRKLNEQSPFRCTLEAGAMT	1.63
AKQLFRKLNEQSPKRCTLEAGAMT	2.41
AKQLFRKLNEQSPNRCTLEAGAMT	1.98
AKQLFRKLNEQSPGRCTLEAGAMT	1.74
AKQLFRKLNEQSPIRCTLEAGAMT	2.55
AKQLFRKLNEQSPSRCTLEAGAMT	1.89

Variant	protein stability index
AKQLFRKLNEQSPDRCTLEAGAMT	3.27
AKQLFRKLNEQSPVRCTLEAGAMT	2.06
AKQLFRKLNEQSPRRCTLEAGAMT	2.38
AKQLFRKLNEQSPYRCTLEAGAMT	1.99
AKQLFRKLNEQSPARCTLEAGAMT	1.68
AKQLFRKLNEQSPPRCTLEAGAMT	2.35
AKQLFRKPNEQSPTRCTLEAGAMT	2.82
AKQLFRKQNEQSPTRCTLEAGAMT	3.08
AKQLFRKSNEQSPTRCTLEAGAMT	2.35
AKQLFRKDNEQSPTRCTLEAGAMT	3.66
AKQLFRKNNEQSPTRCTLEAGAMT	2.49
AKQLFRKANEQSPTRCTLEAGAMT	2.91
AKQLFRKTNEQSPTRCTLEAGAMT	2.89
AKQLFRKCNEQSPTRCTLEAGAMT	2.35
AKQLFRKFNEQSPTRCTLEAGAMT	2
AKQLFRKINEQSPTRCTLEAGAMT	2.1
AKQLFRKMNEQSPTRCTLEAGAMT	2.55
AKQLFRKWNEQSPTRCTLEAGAMT	3.19
AKQLFRKGNEQSPTRCTLEAGAMT	2.49
AKQLFRKKNEQSPTRCTLEAGAMT	3.07
AKQLFRKRNEQSPTRCTLEAGAMT	3.84
AKQLFRKENEQSPTRCTLEAGAMT	3.13
AKQLFRKYNEQSPTRCTLEAGAMT	1.91
AKQLFRKVNEQSPTRCTLEAGAMT	3.09

Variant	protein stability index
AKQLFRKHNEQSPTRCTLEAGAMT	2.64
AKQLFRKLNEQQPTRCTLEAGAMT	2.16
AKQLFRKLNEQGPTRCTLEAGAMT	2.14
AKQLFRKLNEQWPTRCTLEAGAMT	1.77
AKQLFRKLNEQDPTRCTLEAGAMT	3.51
AKQLFRKLNEQIPTRCTLEAGAMT	1.86
AKQLFRKLNEQRPTRCTLEAGAMT	1.4
AKQLFRKLNEQTPTRCTLEAGAMT	1.96
AKQLFRKLNEQKPTRCTLEAGAMT	1.84
AKQLFRKLNEQAPTRCTLEAGAMT	1.88
AKQLFRKLNEQCPTRCTLEAGAMT	2.87
AKQLFRKLNEQLPTRCTLEAGAMT	2.84
AKQLFRKLNEQNPTRCTLEAGAMT	1.93
AKQLFRKLNEQHPTRCTLEAGAMT	2.13
AKQLFRKLNEQFPTRCTLEAGAMT	2.05
AKQLFRKLNEQVPTRCTLEAGAMT	1.45
AKQLFRKLNEQPPTRCTLEAGAMT	1.68
AKQLFRKLNEQEPTRCTLEAGAMT	3.46
AKQLFRKLNEQYPTRCTLEAGAMT	2.43
AKQLFRKLNEQMPTRCTLEAGAMT	2.37
